Reference: publication PMC8263776, “Calmodulin-dependent KCNE4 dimerization controls membrane targeting” (Scientific Reports, 2021)

What was measured:
[1] = target: the molecule itself; assay: counting of GFP bleaching steps of single spots (TIRF microscopy); loopBAD-GFP proteins biotinylated by BirA on HEK-293 cells, immobilised through neutravidin on biotinylated glass; bleaching steps counted per spot
[2] = target: the molecule itself; assay: cross-linking; HEK-293 lysates (50 mM boric acid, 100 mM K acetate, 2 mM MgCl2, 1 mM EGTA, 1% Triton X-100, pH 8.5) with or without 5 mM DMP for 1 h; 7% SDS-PAGE, immunoblot against CFP

Row | Protein | stoichiometry N [1] | stoichiometry N [2]
1 | KCNE4-loopBAD-GFP (natural protein, mouse, UniProt Q9WTW3 1-170, looked up, biotin on the loopBAD tag (BirA co-expressed), KCNE4, mouse (mKCNE4), UniProtKB Q9WTW3; KCNE4-GFP with a loopBAD tag introduced at an NruI restriction site; source: HEK-293, electroporated with BirA, on the cell surface) MLRMEPLNSTYPSAAASSSPLESHVPSNSSGNGNEYFYILVVMSFYGVFLIGIMLGYMKSKRREKKSSLLLLYKDEERLWGEAMKPLPMMSGLRSGQVPMMLNMLQESVAPALSCTLCSMEGDSVSSESSSPDVHLPIQEEGADDELEETSETPLNDSSEGSSENIHQNS | 2 | 
2 | Kv1.3-CFP (natural protein, rat, UniProt P15384 1-525, looked up, Kv1.3, rat (rKv1.3), subcloned from pRcCMV into pECFP-C1; pECFP-C1 is surmised to put CFP at the N-terminus of the insert; source: HEK-293, transfected; in lysate (cross-linking) or in fixed cells (FRET)) MTVVPGDHLLEPEAAGGGGGDPPQGGCVSGGGCDRYEPLPPALPAAGEQDCCGERVVINISGLRFETQLKTLCQFPETLLGDPKRRMRYFDPLRNEYFFDRNRPSFDAILYYYQSGGRIRRPVNVPIDIFSEEIRFYQLGEEAMEKFREDEGFLREEERPLPRRDFQRQVWLLFEYPESSGPARGIAIVSVLVILISIVIFCLETLPEFRDEKDYPASPSQDVFEAANNSTSGASSGASSFSDPFFVVETLCIIWFSFELLVRFFACPSKATFSRNIMNLIDIVAIIPYFITLGTELAERQGNGQQAMSLAILRVIRLVRVFRIFKLSRHSKGLQILGQTLKASMRELGLLIFFLFIGVILFSSAVYFAEADDPSSGFNSIPDAFWWAVVTMTTVGYGDMHPVTIGGKIVGSLCAIAGVLTIALPVPVIVSNFNYFYHRETEGEEQAQYMHVGSCQHLSSSAEELRKARSNSTLSKSEYMVIEEGGMNHSAFPQTPFKTGNSTATCTTNNNPNSCVNIKKIFTDV |  | 4
3 | Kv1.3-loopBAD-GFP (natural protein, rat, UniProt P15384 1-525, looked up, biotin on the loopBAD tag (BirA co-expressed), Kv1.3, rat (rKv1.3); GFP-Kv1.3 with a loopBAD tag introduced at an NruI restriction site; source: HEK-293, electroporated with BirA, on the cell surface) MTVVPGDHLLEPEAAGGGGGDPPQGGCVSGGGCDRYEPLPPALPAAGEQDCCGERVVINISGLRFETQLKTLCQFPETLLGDPKRRMRYFDPLRNEYFFDRNRPSFDAILYYYQSGGRIRRPVNVPIDIFSEEIRFYQLGEEAMEKFREDEGFLREEERPLPRRDFQRQVWLLFEYPESSGPARGIAIVSVLVILISIVIFCLETLPEFRDEKDYPASPSQDVFEAANNSTSGASSGASSFSDPFFVVETLCIIWFSFELLVRFFACPSKATFSRNIMNLIDIVAIIPYFITLGTELAERQGNGQQAMSLAILRVIRLVRVFRIFKLSRHSKGLQILGQTLKASMRELGLLIFFLFIGVILFSSAVYFAEADDPSSGFNSIPDAFWWAVVTMTTVGYGDMHPVTIGGKIVGSLCAIAGVLTIALPVPVIVSNFNYFYHRETEGEEQAQYMHVGSCQHLSSSAEELRKARSNSTLSKSEYMVIEEGGMNHSAFPQTPFKTGNSTATCTTNNNPNSCVNIKKIFTDV | 4 | 
